How the values were obtained:
[1] = target: TMEM47-GFP (murine TMEM47 tagged with GFP) (murine) (UniProt Q9JJG6); assay: co-IP
[2] = target: TMEM47-GFP (murine TMEM47 tagged with GFP) (murine, UniProt Q9JJG6 1-181); assay: co-IP
Sequence of TMEM47-GFP (murine TMEM47 tagged with GFP) (Q9JJG6 whole entry): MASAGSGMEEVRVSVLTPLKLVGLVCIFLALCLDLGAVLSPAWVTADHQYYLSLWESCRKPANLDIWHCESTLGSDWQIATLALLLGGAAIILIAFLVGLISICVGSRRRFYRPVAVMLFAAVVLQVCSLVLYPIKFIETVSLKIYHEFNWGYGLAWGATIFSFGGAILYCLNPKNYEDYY

Sequence of TMEM47-GFP (murine TMEM47 tagged with GFP) (murine) (Q9JJG6 whole entry): as above

With α-catenin (natural protein) the precipitating fraction [1] was under 5%.

B1: β-catenin (natural protein, canine (endogenous in MDCK), UniProt B6V8E6 1-781, looked up)
chain: MATQADLMELDMAMEPDRKAAVSHWQQQSYLDSGIHSGATTTAPSLSGKGNPEEEDVDTTQVLYEWEQGFSQSFTQEQVADIDGQYAMTRAQRVRAAMFPETLDEGMQIPSTQFDAAHPTNVQRLAEPSQMLKHAVVNLINYQDDAELATRAIPELTKLLNDEDQVVVNKAAVMVHQLSKKEASRHAIMRSPQMVSAIVRTMQNTNDVETARCTAGTLHNLSHHREGLLAIFKSGGIPALVKMLGSPVDSVLFYAITTLHNLLLHQEGAKMAVRLAGGLQKMVALLNKTNVKFLAITTDCLQILAYGNQESKLIILASGGPQALVNIMRTYTYEKLLWTTSRVLKVLSVCSSNKPAIVEAGGMQALGLHLTDPSQRLVQNCLWTLRNLSDAATKQEGMEGLLGTLVQLLGSDDINVVTCAAGILSNLTCNNYKNKMMVCQVGGIEALVRTVLRAGDREDITEPAICALRHLTSRHQEAEMAQNAVRLHYGLPVVVKLLHPPSHWPLIKATVGLIRNLALCPANHAPLREQGAIPRLVQLLVRAHQDTQRRTSMGGTQQQFVEGVRMEEIVEGCTGALHILARDVHNRIVIRGLNTIPLFVQLLYSPIENIQRVAAGVLCELAQDKEAAEAIEAEGATAPLTELLHSRNEGVATYAAAVLFRMSEDKPQDYKKRLSVELTSSLFRTEPMAWNETADLGLDIGAQGEPLGYRQDDPSYRSFHSGGYGQDALGMDPMMEHEMGGHHPGADYPVDGLPDLGHAQDLMDGLPPGDSNQLAWFDTDL
In the case of B1, the precipitating fraction [2] is reported as under 5%.

B2: aPKCλ–myc (myc-tagged aPKCλ) (enzyme, murine, UniProt Q62074 1-595, looked up)
chain: MPTQRDSSTMSHTVACGGGGDHSHQVRVKAYYRGDIMITHFEPSISFEGLCSEVRDMCSFDNEQPFTMKWIDEEGDPCTVSSQLELEEAFRLYELNKDSELLIHVFPCVPERPGMPCPGEDKSIYRRGARRWRKLYCANGHTFQAKRFNRRAHCAICTDRIWGLGRQGYKCINCKLLVHKKCHKLVTIECGRHSLPPEPMMPMDQTMHPDHTQTVIPYNPSSHESLDQVGEEKEAMNTRESGKASSSLGLQDFDLLRVIGRGSYAKVLLVRLKKTDRIYAMKVVKKELVNDDEDIDWVQTEKHVFEQASNHPFLVGLHSCFQTESRLFFVIEYVNGGDLMFHMQRQRKLPEEHARFYSAEISLALNYLHERGIIYRDLKLDNVLLDSEGHIKLTDYGMCKEGLRPGDTTSTFCGTPNYIAPEILRGEDYGFSVDWWALGVLMFEMMAGRSPFDIVGSSDNPDQNTEDYLFQVILEKQIRIPRSLSVKAASVLKSFLNKDPKERLGCHPQTGFADIQGHPFFRNVDWDMMEQKQVVPPFKPNISGEFGLDNFDSQFTNEPVQLTPDDDDIVRKIDQSEFEGFEYINPLLMSAEECV
B2 was tested, and the precipitating fraction [2] was under 5%.

B3: Par6B (natural protein, canine (endogenous in MDCK), UniProt A0A8I3PSX6 1-370, looked up)
chain: MNRSHRHGAGSGCLGTMEVKSKFGAEFRRFSLERSKPGKFEEFYGLLQHVHKIPNVDVLVGYADIHGDLLPINNDDNYHKAVSTANPLLRIFIQKKEEADYSAFGTDTLIKKKNVLTNVLRPDNHRKKPHIVISMPQDFRPVSSIIDVDILPETHRRVRLYKYGTEKPLGFYIRDGSSVRVTPHGLEKVPGIFISRLVPGGLAQSTGLLAVNDEVLEVNGIEVSGKSLDQVTDMMIANSRNLIITVRPANQRNNVVRNSRTSGSSGQSTDNSLLGYPQQVEPSFEPEDEDSDEDDIIIEDNGVPQQIPKAVPNTESFESLTQIELSFESGQNGFIPSNEVSLAPIASGTNTETRAPDQKLLEEDGTIITL
In the case of B3, the precipitating fraction [2] is reported as under 5%.

Source: PMC5322768 (Developmental dynamics : an official publication of the …, 2016)
